Like-named read-outs stand apart in the source and are kept apart here.
Key:
[1] = tested on: cells with an ABCG2 efflux pump; experiment: ABCG2 efflux pump resistance, PBX-001 versus Trodelvy; assay type: cell-based
[2] = tested on: metastatic epithelial cancers; conditions: cited from earlier work
[3] = tested on: patients treated with Sacituzumab Govitecan; conditions: cited from earlier work
[4] = tested on: various metastatic solid tumors; conditions: 8 mg/kg to 18 mg/kg; cited from earlier work

Substance: Sacituzumab Govitecan: humanized IgG linked to SN-38 through a pH-sensitive linker
- resistance through ABCG2 efflux pump [1]: resistant
- anemia, any grade ([2]; 8 mg/kg): 38%
- anemia, grade 3 or higher ([2]; 8 mg/kg): 13%
- constipation, any grade ([2]; 8 mg/kg): 33%
- diarrhea, any grade ([2]; 8 mg/kg): 53%
- diarrhea, grade 3 or higher ([2]; 8 mg/kg): 4%
- dose reductions ([2]; 8 mg/kg): 19%
- fatigue, any grade ([2]; 8 mg/kg): 61%
- grade 3 or higher neutropenia after the first dose ([2]; 8 mg/kg): 21%
- hair loss, any grade ([2]; 8 mg/kg): 46%
- leukopenia, grade 3 or higher ([2]; 8 mg/kg): 6%
- nausea, any grade ([2]; 8 mg/kg): 59%
- neutropenia, any grade ([2]; 8 mg/kg): 42%
- neutropenia, grade 3 or higher ([2]; 8 mg/kg): 30%
- vomiting, any grade ([2]; 8 mg/kg): 36%
- anemia, any grade ([2]; 10 mg/kg): 42%
- constipation, any grade ([2]; 10 mg/kg): 37%
- diarrhea, any grade ([2]; 10 mg/kg): 62%
- diarrhea, grade 3 or higher ([2]; 10 mg/kg): 10%
- dose reductions ([2]; 10 mg/kg): 28%
- fatigue, any grade ([2]; 10 mg/kg): 52%
- grade 3 or higher neutropenia after the first dose ([2]; 10 mg/kg): 47%
- hair loss, any grade ([2]; 10 mg/kg): 37%
- nausea, any grade ([2]; 10 mg/kg): 63%
- neutropenia, any grade ([2]; 10 mg/kg): 58%
- neutropenia, grade 3 or higher ([2]; 10 mg/kg): 36%
- vomiting, any grade ([2]; 10 mg/kg): 43%
- diarrhea, all grade ([3]; all treated patients): 65%
- neutropenia, any grade ([3]; all treated patients): 61%
- febrile neutropenia ([3]; patients): 7%
- neutropenic colitis ([3]; patients): 0.5%
- dose-limiting toxicity [4]: neutropenia
